Reference: patent publication US12319941B2, “Thermophilic recombinant type II pullulanase and application thereof” (Jiangnan University, priority 2019, dated 2025)
Entries after “also recorded” stand apart in the source; their conditions may differ. Where two headings read alike, the source gives them in different places.

What was measured:
[1] = test system: recombinant type II pullulanase Sumo-PulPy; experiment: Effect of metal ions and chemical reagents on the enzyme activity of Sumo-PulPy; assay type: biochemical, Pyrococcus yayanosii CH1; settings: for Relative enzyme activity (%): pH 6.6; for effect on the enzyme activity of Sumo-PulPy (in words): reagent added to enzymatic reaction system
[2] = Optimum pH and pH stability of the enzyme; assay type: biochemical; settings: for optimum pH: 100 mM potassium phosphate buffer pH 5.8-8.0; for pH stability / pH tolerance: between pH 5.8 and 8.0
Procedure: (§1) The determination of the activity of recombinant type II pullulanase Sumo-PulPy was adopted the 3,5-dinitrosalicylic acid (DNS) method. The specific steps were as follows: reacting 100 μL reaction system (10 μL potassium phosphate buffer with different pH with a final concentration of 100 mM, 50 μL pullulan with a final concentration of 3% and 40 μL enzyme solution) at a certain temperature for 15 min, adding 100 μL DNS reaction solution, boiling in a water bath for 6 min, immediately cooling to room temperature with running water, adding and diluting with distilled water, mixing well, and determining […]. One enzyme activity unit (U) was defined as the amount of enzyme required to release reducing sugar correspond to the reduction capacity of 1 μmol glucose per minute under assay conditions.
Determination of the optimum pH: the purified Sumo-PulPy was subjected to enzymatic reaction in 100 mM potassium phosphate buffer (pH 5.8-8.0) at 95° C.
Determination of the pH stability of the enzyme: the enzyme solution was added into 100 mM potassium phosphate buffer (pH 5.8-8.0) and disposed at 4° C. for 4 h, and then the enzymatic reaction was performed at pH 6.6 and 95° C. to determine the remaining enzyme activity of Sumo-PulPy. […] Except for a 12% loss of enzyme activity after disposal at pH 5.8 for 4 h, the rest has almost no effect on the enzyme activity (FIG. 4).

[3] = Analysis of degradation products of pullulan (HPLC); assay type: biochemical; settings: 1% pullulan, 95° C., 6 h
Procedure: (§2) The sample processing procedure was as follows: an appropriate amount of pure enzyme solution was mixed well with 1% pullulan and 1% Amylose from potato respectively, enzymatically hydrolyzed at 95° C. for 6 h, cooled to room temperature and then centrifuged at 12000 r/min for 20 min. And the supernatant was taken. The enzymatic hydrolysis products of pullulan and Amylose from potato were analyzed using high performance liquid chromatography (HPLC, conditions: Hpersil NH2 amino column (4.6×250 mm), column temperature 40° C., mobile phase (acetonitrile:water=67:33), flow rate 1.0 mL/min, injection volume 20 μL) and MALDI-TOF/TOF matrix-assisted laser […]/ionization tandem time-of-flight mass spectrometer respectively.

[4] = Analysis of degradation products of Amylose from potato (MALDI-TOF/TOF); assay type: biochemical; settings: 1% Amylose from potato, 95° C., 6 h
Procedure: as §2

[5] = assay type: biochemical; settings: for optimum temperature: potassium phosphate buffer, 75-100° C.
Procedure: as §1
Determination of the optimum temperature of the enzyme: the enzymatic reaction was performed in a potassium phosphate buffer (pH 6.6) at 75-100° C.
Determination of the thermal stability of the enzyme: the enzyme solution with the same amount of enzyme was placed under the conditions of 80° C., 90° C., 95° C. and 100° C., respectively, and disposed for 2 h, 4 h, 6 h, 8 h and 10 h, respectively, and the enzymatic reaction was performed at pH 6.6 and 95° C. to determine the remaining enzyme activity of Sumo-PulPy.

[6] = DNS method enzyme activity and kinetic parameters (Lineweaver-Burk) with pullulan as substrate; assay type: biochemical; settings: for Km / Vmax: pullulan 1.25-40 mg/mL, optimum conditions
Procedure: as §1
Using different concentrations of pullulan (1.25, 2.5, 5, 10, 20, and 40 mg/mL) as the substrate, the enzyme activity was determined under the optimum conditions, the corresponding reaction rate was calculated, and Km value and Vmax were obtained by Linewear Burk method using Michaelis-Menten Equation.

[7] = reagent 2 mM, 100% = no reagent, 95° C.
[8] = reagent 1%, 100% = no reagent, 95° C.

In the case of O=S(=O)([O-])[O-].[Ni+2] [NiSO4], the “Relative enzyme activity (%)” value [1, 7] is reported as 73.3 ± 3.3%.

For Triton X-100, the “Relative enzyme activity (%)” value [1, 8] was 111.1 ± 3.6% and the “effect on the enzyme activity of Sumo-PulPy (in words)” value (shortened to “effect on the enzyme activity”) [1] was “weakly promote”.

In the case of [Cl-].[K+] [KCl], the “Relative enzyme activity (%)” value [1, 7] is reported as 104.1 ± 3.0% and the “effect on the enzyme activity” value [1] is reported as “weakly promote”.

With [Cl-].[Cl-].[Co+2] [CoCl2] the “Relative enzyme activity (%)” value [1] was 150.0 ± 4.8%.

In the case of [Cl-].[Cl-].[Mg+2] [MgCl2], the “Relative enzyme activity (%)” value [1, 7] is reported as 94.9 ± 3.4%.

In the case of O=S(=O)([O-])[O-].[Fe+2] [FeSO4], the “Relative enzyme activity (%)” value [1, 7] is reported as 183.1 ± 4.0%.

In the case of CCCCCCCC/C=C\CCCCCCCC(=O)OCCOCC(OCCO)C1OCC(OCCO)C1OCCO (centres unmarked) [Tween-80], the “Relative enzyme activity (%)” value [1, 8] is reported as 110.8 ± 2.9% and the “effect on the enzyme activity” value [1] is reported as “weakly promote”.

In the case of [Ca+2].[Cl-].[Cl-] [CaCl2], the “Relative enzyme activity (%)” value [1, 7] is reported as 71.3 ± 3.5%.

In the case of [Cl][Cu][Cl] [CuCl2], the “Relative enzyme activity (%)” value [1, 7] is reported as 45.9 ± 3.5%.

With OCCS [β-mercaptoethanol] the “Relative enzyme activity (%)” value [1, 8] was 157.4 ± 3.0%.

In the case of [Cl-].[Na+] [NaCl], the “Relative enzyme activity (%)” value [1] is reported as 81.1 ± 4.2%.

For O[C@@H](CS)[C@@H](O)CS [DTT], the “Relative enzyme activity (%)” value [1, 8] was 337.2 ± 4.7%.

For [Cl][Mn][Cl] [MnCl2], the “Relative enzyme activity (%)” value [1, 7] was 91.2 ± 2.9%.

In the case of O=S(=O)([O-])[O-].[Zn+2] [ZnSO4], the “Relative enzyme activity (%)” value [1, 7] is reported as 0%.

B1: Sumo-PulPy: thermophilic recombinant type II pullulanase from Pyrococcus yayanosii CH1 (SEQ ID NO:1) with His and Sumo tags, expressed in E. coli (protein)
chain: MGHHHHHHMSDSEVNQEAKPEVKPEVKPETHINLKVSDGSSEIFFKIKKTTPLRRLMEAFAKRQGKEMDSLRFLYDGIRIQADQTPEDLDMEDNDIIEAHREQIGGQRGSRRVLSLFVVFVVLGSLLALQPEVKAGEPKPLNVIIVWHQHQPYYYDPVQGIYTRPWVRLHAANNYWKMAYYLSKYPDVHATIDLSGSLIAQLADYMNGAKDIYQIITEKIAKGEPLTVEEKWLMLQAPGGFFDHTIPWNGEPVTDKNGNPIRDFWNRYTELKNKMLQAKAKYANLPLEEQKVAVTNEFTEQDYIDLAVLFNLAWIDYNYIMNTPELKALYEKVDEGGYTREDVRTVLKHQMWLLNHTFEEHEKINLLLGNGNVEVTVVPYAHPIGPILNDFGWEEDFDAHVKKAHELYKKYLGAGKVTPKGGWAAESALNDKTLEILAENGWQWVMTDQLVLQKLGIPYTVENYYKPWVAEFNGRKIYLFPRDHALSDRVGFTYSGMNQYQAVEDFINELLRIQKQNYDGSLVYVITLDGENPWEHYPYDGKLFLETLYKRLTELQRQGLIRTLTPSEYIKLYGDKANKLTPQMMERLDLTGDNVEALLKAQSLGELYDMIGVKEEMQWPESSWIDGTLSTWIGEPQENYGWYWLYLARKALMAQKDKMSQENWEKAYEYLLRAEASDWFWWYGSDQSSGQDYTFDRYFKTYLYEIYRLAGLEPPSYLYGNYFPDGEPYTIRALEGLGEGQVKEYSSMSPLAEGVSVYFDGEGVHFVVKGNLEKFEISIYEKGERVGNTFTLLQERPGELKYSLFPFSRDSVGLLITKHVVYRDGKAEIYAATDYENTEKVGEASVKQVDGGVEIVVPFDYIKTPEDFYFAVSTVKDGELEIITTPIELKLPMEVKGVPIVDVVDPEGDDYGPGTYTYPTDPVFVPHHLDLLRFRILEQTDAYVMEFYFKELGGNVWNAPNGFSLQIIEVYLDFREGGNTSAIKMFPDGPGANVNLDPEHPWDLALRIAGWDYGNLIVLPNGTVYQGELQISADPVNNKIIVKVPKKYIQIDEDYGLWGVVLVGSQDGYGPDKWRPVAVEAEQWRLGGADQQAVIDNLAPRVVDLLVPEGFKPTQEEQLSSYDLEKKILATVLMIPLIEGSGGEEPAETPRETAIPAESPTTTEAPTETQSTTTSQGPTETQTGGGICGPVALLGLVMTPLLLRRRR
modifications: His and Sumo tags; Protein translated from synthetic DNA
In the case of B1, the “optimum pH” value [2] is reported as 6.6, the “loss of enzyme activity after disposal at pH 5.8 for 4 h” value ([2]; 4° C., 4 h, pH 5.8, then assay at pH 6.6 and 95° C.) is reported as 12% and the “pH stability / pH tolerance” value [2] is reported as “better pH tolerance; also recorded: very stable”. The pullulan hydrolysates [3] was “most of the pullulan hydrolysates are maltotriose”, the “hydrolysate of Amylose from potato” value [4] was “mainly oligosaccharides such as pentasaccharides, hexasaccharides, heptasaccharides, and octasaccharides” and the “remaining enzyme activity after heat preservation at 95° C. for 10 h” value ([5]; 10 h) was “greater than 50%”. For the same molecule, the optimum temperature [5] was 95 °C, the specific enzyme activity [6] was 5.37±0.20 U/mg and the specific enzyme activity ([6]; 95° C. and pH 6.6, no metal ions or chemical reagents added) was 5.37±0.20 U/mg. The Km [6] was 8.78 ± 0.89 mg/mL and the Vmax [6] was 5.37±0.20 U/mg.

B2: Δ28N+Δ791C: combined truncation mutant of PulPy: first 28 N-terminal amino acids and amino acids after position 790 deleted (SEQ ID NO:3) (protein)
chain: MGHHHHHHMSDSEVNQEAKPEVKPEVKPETHINLKVSDGSSEIFFKIKKTTPLRRLMEAFAKRQGKEMDSLRFLYDGIRIQADQTPEDLDMEDNDIIEAHREQIGGQRGSPKPLNVIIVWHQHQPYYYDPVQGIYTRPWVRLHAANNYWKMAYYLSKYPDVHATIDLSGSLIAQLADYMNGAKDIYQIITEKIAKGEPLTVEEKWLMLQAPGGFFDHTIPWNGEPVTDKNGNPIRDFWNRYTELKNKMLQAKAKYANLPLEEQKVAVTNEFTEQDYIDLAVLFNLAWIDYNYIMNTPELKALYEKVDEGGYTREDVRTVLKHQMWLLNHTFEEHEKINLLLGNGNVEVTVVPYAHPIGPILNDFGWEEDFDAHVKKAHELYKKYLGAGKVTPKGGWAAESALNDKTLEILAENGWQWVMTDQLVLQKLGIPYTVENYYKPWVAEFNGRKIYLFPRDHALSDRVGFTYSGMNQYQAVEDFINELLRIQKQNYDGSLVYVITLDGENPWEHYPYDGKLFLETLYKRLTELQRQGLIRTLTPSEYIKLYGDKANKLTPQMMERLDLTGDNVEALLKAQSLGELYDMIGVKEEMQWPESSWIDGTLSTWIGEPQENYGWYWLYLARKALMAQKDKMSQENWEKAYEYLLRAEASDWFWWYGSDQSSGQDYTFDRYFKTYLYEIYRLAGLEPPSYLYGNYFPDGEPYTIRALEGLGEGQVKEYSSMSPLAEGVSVYFDGEGVHFVVKGNLEKFEISIYEKGERVGNTFTLLQERPGELKYSLFPFSRDSVGLLITKHVVYRDGKAEIYAATDYENTEKVGEASVKQVDGGVEIVVPFDYIKTPEDFYFAVSTVKDGELEIITTPIELKLPMEVKGVP
modifications: Protein translated from synthetic DNA
For B2, the “optimum pH” value [2] was 6.4, the “pH stability / pH tolerance” value [2] was “good pH tolerance” and the “improvement of optimum temperature compared with Sumo-PulPy” value [5] was 5 °C. The “thermal stability at 100° C. compared with Sumo-PulPy” value [5] was “slightly improves”, the “remaining enzyme activity after heat preservation at 100° C. for 2 h” value ([5]; 2 h) was “greater than 60%” and the optimum temperature [5] was 100 °C. For the same molecule, the specific enzyme activity [6] was 32.18±0.92 U/mg, the “specific enzyme activity relative to Sumo-PulPy” value [6] was 5.99 times and the Km [6] was 6.63 ± 0.56 mg/mL. It also gave a Vmax [6] of 32.18±0.92 U/mg.
